Experimental data as given in paper PMC6033465.

Columns and labels:
[1] = target: human lysozyme c (human) (UniProt P61626)
[2] = target: recombinant wild type SliC (surface-exposed lysozyme inhibitor of c-type lysozyme, NGO1063) of N. gonorrhoeae FA1090 (N. gonorrhoeae FA1090); experiment: BLI; biotinylated rSliC (20 ug/mL, 10 min) immobilised on streptavidin sensors, increasing concentrations of HL in solution; Kinetic Buffer (20 mM HEPES pH 8, 15 mM NaCl, 0.002 Tween 20, 0.1 mg/mL BSA); association and dissociation 600 s; 2:1 (Heterogeneous Ligand) model; three biological …; OctetRed 96

Row | Molecule | IC50 of SliC against the lytic activity of HL towards M. lysodeikticus peptidoglycan (fluorescein-labeled cell walls; 2.5 μM HL, 0-10 μM SliC) [1] | Kd [2]
1 | recombinant wild type SliC (surface-exposed lysozyme inhibitor of c-type lysozyme, NGO1063) of N. gonorrhoeae FA1090 (natural protein) | 1.85 µM | –
2 | human lysozyme c (enzyme) KVFERCELARTLKRLGMDGYRGISLANWMCLAKWESGYNTRATNYNAGDRSTDYGIFQINSRYWCNDGKTPGAVNACHLSCSALLQDNIADAVACAKRVVRDPQGIRAWVAWRNRCQNRDVRQYVQGCGV | – | 9.2 µM
